Laboratory results from patent publication US20040018561.

B1: MMP-2 (protein)
chain: YNFFPRKPKWDKNQITYRIIGYTPDLDPETVDDAFARAFQVWSDVTPLRFSRIHDGEADIMINFGRWEHGDGYPFDGKDGLLAHAFAPGTGVGGDSHFDDDELWTLGEGQVVRVKYGNADGEYCKFPFLFNGKEYNSCTDTGRSDGFLWCSTTYNFEKDGKYGFCPHEALFTMGGNAEGQPCKFPFRFQGTSYDSCTTEGRTDGYRWCGTTEDYDRDKKYGFCPETAMSTVGGNSEGAPCVFPFTFLGNKYESCTSAGRSDGKMWCATTANYDDDRKWGFCPDQGYSLFLVAAHEFGHAMGLEHSQDPGALMAPIYTYTKNFRLSQDDIKGIQELYGASPDIDLGTGPTPTLGPVTPEICKQDIVFDGIAQIRGEIFFFKDRFIWRTVTPRDKPMGPLLVATFWPELPEKIDAVYEAPQEEKAVFFAGNEYWIYSASTLERGYPKPLTSLGLPPDVQRVDAAFNWSKNKKTYIFAGDKFWRYNEVKKKMDPGFPKLIADAWNAIPDNLDAVVDLQGGGHSYFFKGAYYLKLENQSLKSVKFGSIKSDWLGC
B2: MMP-1 (protein)
chain: FVLTEGNPRWEQTHLTYRIENYTPDLPRADVDHAIEKAFQLWSNVTPLTFTKVSEGQADIMISFVRGDHRDNSPFDGPGGNLAHAFQPGPGIGGDAHFDEDERWTNNFREYNLHRVAAHELGHSLGLSHSTDIGALMYPSYTFSGDVQLAQDDIDGIQAIYGRSQNPVQPIGPQTPKACDSKLTFDAITTIRGEVMFFKDRFYMRTNPFYPEVELNFISVFWPQLPNGLEAAYEFADRDEVRFFKGNKYWAVQGQNVLHGYPKDIYSSFGFPRTVKHIDAALSEENTGKTYFFVANKYWRYDEYKRSMDPGYPKMIAHDFPGIGHKVDAVFMKDGFFYFFHGTRQYKFDPKTKRILTLQKANSWFNCRKN
B3: MMP-7 (protein)
chain: YSLFPNSPKWTSKVVTYRIVSYTRDLPHITVDRLVSKALNMWGKEIPLHFRKVVWGTADIMIGFARGAHGDSYPFDGPGNTLAHAFAPGTGLGGDAHFDEDERWTDGSSLGINFLYAATHELGHSLGMGHSSDPNAVMYPTYGNGDPQNFKLSQDDIKGIQKLYGKRSNSRKK

Key:
[1] = molecular target: N-2-[(7-methoxy-2-oxo-2H-chromen-4-yl)acetyl]-D-arginyl-L-prolyl-L-leucylglycyl-6-(benzyloxy)-L-norleucyl-3-[(2,4-dinitrophenyl)amino]-L-alanyl-L-alanyl-D-arginyl-D-alpha-glutamyl-D-argininamide
[2] = molecular target: N-2-[(7-methoxy-2-oxo-2H-chromen-4-yl)acetyl]-D-arginyl-L-prolyl-L-leucylglycyl-6-phenoxy-L-norleucyl-3-[(2,4-dinitrophenyl)amino]-L-alanyl-L-alanyl-D-arginyl-D-alpha-glutamyl-D-argininamide
[3] = molecular target: N-2-[(7-methoxy-2-oxo-2H-chromen-4-yl)acetyl]-D-arginyl-L-prolyl-L-leucylglycyl-L-leucyl-3-[(2,4-dinitrophenyl)amino]-L-alanyl-L-alanyl-D-arginyl-D-alpha-glutamyl-D-argininamide
[4] = molecular target: N-2-[(7-methoxy-2-oxo-2H-chromen-4-yl)acetyl]-L-arginyl-L-prolyl-L-leucylglycyl-6-(benzyloxy)-L-norleucyl-3-[(2,4-dinitrophenyl)amino]-L-alanyl-L-alanyl-L-arginyl-L-alpha-glutamyl-L-argininamide
[5] = molecular target: N-2-[(7-methoxy-2-oxo-2H-chromen-4-yl)acetyl]-L-arginyl-L-prolyl-L-leucylglycyl-L-leucyl-3-[(2,4-dinitrophenyl)amino]-L-alanyl-L-alanyl-D-arginyl-D-alpha-glutamyl-D-argininamide
[6] = molecular target: N-2-[(7-methoxy-2-oxo-2H-chromen-4-yl)acetyl]-L-arginyl-L-prolyl-L-leucylglycyl-L-leucyl-3-[(2,4-dinitrophenyl)amino]-L-alanyl-L-alanyl-L-arginyl-L-alpha-glutamyl-L-argininamide

Protein	Km [1]	kcat/Km [1]	Km [2]	kcat/Km [2]	Km [3]	kcat/Km [3]	Km [4]	kcat/Km [4]	Km [5]	kcat/Km [5]	Km [6]	kcat/Km [6]
B1	3.7 µM	600000 M⁻¹ s⁻¹	3.6 µM	1.96e+06 M⁻¹ s⁻¹	9.9 µM	178000 M⁻¹ s⁻¹	8.3 µM	1.34e+06 M⁻¹ s⁻¹	16.3 µM	681000 M⁻¹ s⁻¹	16.5 µM	565000 M⁻¹ s⁻¹
B2	35.1 µM	3600 M⁻¹ s⁻¹	–	0 M⁻¹ s⁻¹	49 µM	57000 M⁻¹ s⁻¹	–	0 M⁻¹ s⁻¹	17.3 µM	176000 M⁻¹ s⁻¹	16 µM	255000 M⁻¹ s⁻¹
B3	94.7 µM	2980 M⁻¹ s⁻¹	–	0 M⁻¹ s⁻¹	81.2 µM	22000 M⁻¹ s⁻¹	–	0 M⁻¹ s⁻¹	25 µM	120000 M⁻¹ s⁻¹	26.4 µM	142000 M⁻¹ s⁻¹
